In patent US20050053913A1:

Target: AD-E2F1 (GAL4-AD fused to AA 159-437 of E2F1) (yeast; human) (UniProt P04386)
Assay: cell-based or functional assay

DB-DP1 (GAL4-DB fused to DP1) (from UniProt P04386 1-147; Q14186 1-410)
growth on medium lacking histidine with 3AT (GAL1:HIS3 reporter): < 100 mM 3AT
